Assay results taken from patent publication US20240287172A1 (SCIRHOM, published 2024).

T1: hiR2-FL-H505R-T7 (human, UniProt Q6PJF5 1-856)
T1 sequence: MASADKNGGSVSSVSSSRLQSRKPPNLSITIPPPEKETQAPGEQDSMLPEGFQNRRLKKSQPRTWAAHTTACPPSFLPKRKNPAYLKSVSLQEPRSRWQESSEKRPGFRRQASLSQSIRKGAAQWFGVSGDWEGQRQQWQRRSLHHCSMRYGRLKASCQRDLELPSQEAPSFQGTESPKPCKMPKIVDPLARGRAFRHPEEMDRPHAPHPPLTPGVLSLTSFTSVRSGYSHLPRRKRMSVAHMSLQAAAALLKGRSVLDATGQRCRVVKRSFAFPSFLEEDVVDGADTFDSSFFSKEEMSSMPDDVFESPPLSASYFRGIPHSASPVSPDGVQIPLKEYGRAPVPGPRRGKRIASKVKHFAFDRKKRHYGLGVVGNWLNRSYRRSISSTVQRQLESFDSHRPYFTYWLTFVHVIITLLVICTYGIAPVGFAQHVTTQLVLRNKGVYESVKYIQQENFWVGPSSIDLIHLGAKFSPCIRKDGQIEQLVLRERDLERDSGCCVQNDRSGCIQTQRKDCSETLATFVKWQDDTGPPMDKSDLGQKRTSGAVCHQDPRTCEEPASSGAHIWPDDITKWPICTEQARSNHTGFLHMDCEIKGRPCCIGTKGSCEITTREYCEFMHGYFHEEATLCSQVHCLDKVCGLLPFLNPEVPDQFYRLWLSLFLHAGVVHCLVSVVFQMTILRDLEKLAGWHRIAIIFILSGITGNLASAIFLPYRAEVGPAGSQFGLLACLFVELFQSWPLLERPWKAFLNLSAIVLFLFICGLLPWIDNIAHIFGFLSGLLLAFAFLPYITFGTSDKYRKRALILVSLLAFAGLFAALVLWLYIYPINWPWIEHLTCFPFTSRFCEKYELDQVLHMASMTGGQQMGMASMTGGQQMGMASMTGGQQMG

T2: hiR2-FL-G546A-T7 (human, UniProt Q6PJF5 1-856)
T2 sequence: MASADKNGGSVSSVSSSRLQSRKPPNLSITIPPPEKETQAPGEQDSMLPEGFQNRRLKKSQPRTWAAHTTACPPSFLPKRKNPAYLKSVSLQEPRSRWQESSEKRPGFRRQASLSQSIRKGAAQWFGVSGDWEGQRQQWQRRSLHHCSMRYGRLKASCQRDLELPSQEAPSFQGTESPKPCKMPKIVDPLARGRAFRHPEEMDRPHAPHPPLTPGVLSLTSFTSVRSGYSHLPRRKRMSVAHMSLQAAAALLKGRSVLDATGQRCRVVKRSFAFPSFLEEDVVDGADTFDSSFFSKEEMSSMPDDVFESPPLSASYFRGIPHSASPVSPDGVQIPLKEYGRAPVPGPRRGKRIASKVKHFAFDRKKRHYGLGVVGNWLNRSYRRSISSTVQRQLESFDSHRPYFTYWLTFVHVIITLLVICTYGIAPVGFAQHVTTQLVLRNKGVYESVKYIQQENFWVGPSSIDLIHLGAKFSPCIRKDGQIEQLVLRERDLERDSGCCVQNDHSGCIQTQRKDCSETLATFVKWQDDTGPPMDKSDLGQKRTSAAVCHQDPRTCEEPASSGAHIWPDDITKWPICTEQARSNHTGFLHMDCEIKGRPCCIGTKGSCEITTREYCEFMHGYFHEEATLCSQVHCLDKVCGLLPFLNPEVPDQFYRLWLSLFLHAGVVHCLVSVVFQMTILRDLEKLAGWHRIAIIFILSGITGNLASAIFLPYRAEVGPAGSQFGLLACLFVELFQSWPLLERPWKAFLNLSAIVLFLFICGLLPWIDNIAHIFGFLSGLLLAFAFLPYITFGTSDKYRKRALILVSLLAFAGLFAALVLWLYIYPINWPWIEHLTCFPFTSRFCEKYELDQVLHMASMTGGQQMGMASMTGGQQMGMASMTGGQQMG


Assays:
hiR2-FL-H505R-T7 = biological target: T1, hiR2-FL-H505R-T7; assay: FACS on MEF-DKO cells
hiR2-FL-G546A-T7 = biological target: T2, hiR2-FL-G546A-T7; assay: FACS on MEF-DKO cells

| Binder | binding result (hiR2-FL-H505R-T7) | binding result (hiR2-FL-G546A-T7) |
| --- | --- | --- |
| antibody 50 (antibody, V domains shown, mouse IgG, kappa light chain; also called clone #50; purified antibody 50) VH: QVQLQQSGAELVRPGASVKVSCKASGYAFSNYLIEWVKQRPGQGLEWIGVINPGSGFTKYNEKFKGKATLTADKSSSTAYMQLSSLTSEDSAVYFCARGLYRAMDYWGQGTSVTVSS VL: DIQMTQSPASQSASLGESVTITCLASQTIGTWLAWYQQKPGKSPQLLIYAAASLADGVPSRFSGGGSGTKFSFKISSLQAEDFVNYYCQQIYSTPYTFGGGTKLEIK | no binding (tested: 3 µg/ml) | – |
| antibody 5 (antibody, V domains shown, mouse IgG, kappa light chain; also called clone #5; purified antibody 5) VH: QVTLKESGPGILQPSQTLSLTCSFSGFSLSTFGMGVGWIRQPSGKGLEWLAHIWWDDEKYYNSALKSRLTISKATSKNQAFLKIANVDTADTATYYCARISNYGSNYWYFNVWGTGTTVTVSS VL: QVVLTQSPALMSASPGEKVTMTCSAGSSVSCMYWYQQKPGSSPRVLIYDTSNLASGVPARFTGSGSGTSYSLTISRMEAEDAASYYCQQWNSYPLTFGAGTKLELK | – | no binding (tested: 3 µg/ml) |
